The results in this text go back to patent US20230250184A1.

The assay deals with human CD22 on cells (Daudi, Raji, Nalm.6, K562-CD22) (human) (UniProt P20273). In words: flow cytometry on K562.huCD22.Luc cells against parental K562 cells, 4 C 30 min.
Sequence of UniProt P20273 (P20273 20-847): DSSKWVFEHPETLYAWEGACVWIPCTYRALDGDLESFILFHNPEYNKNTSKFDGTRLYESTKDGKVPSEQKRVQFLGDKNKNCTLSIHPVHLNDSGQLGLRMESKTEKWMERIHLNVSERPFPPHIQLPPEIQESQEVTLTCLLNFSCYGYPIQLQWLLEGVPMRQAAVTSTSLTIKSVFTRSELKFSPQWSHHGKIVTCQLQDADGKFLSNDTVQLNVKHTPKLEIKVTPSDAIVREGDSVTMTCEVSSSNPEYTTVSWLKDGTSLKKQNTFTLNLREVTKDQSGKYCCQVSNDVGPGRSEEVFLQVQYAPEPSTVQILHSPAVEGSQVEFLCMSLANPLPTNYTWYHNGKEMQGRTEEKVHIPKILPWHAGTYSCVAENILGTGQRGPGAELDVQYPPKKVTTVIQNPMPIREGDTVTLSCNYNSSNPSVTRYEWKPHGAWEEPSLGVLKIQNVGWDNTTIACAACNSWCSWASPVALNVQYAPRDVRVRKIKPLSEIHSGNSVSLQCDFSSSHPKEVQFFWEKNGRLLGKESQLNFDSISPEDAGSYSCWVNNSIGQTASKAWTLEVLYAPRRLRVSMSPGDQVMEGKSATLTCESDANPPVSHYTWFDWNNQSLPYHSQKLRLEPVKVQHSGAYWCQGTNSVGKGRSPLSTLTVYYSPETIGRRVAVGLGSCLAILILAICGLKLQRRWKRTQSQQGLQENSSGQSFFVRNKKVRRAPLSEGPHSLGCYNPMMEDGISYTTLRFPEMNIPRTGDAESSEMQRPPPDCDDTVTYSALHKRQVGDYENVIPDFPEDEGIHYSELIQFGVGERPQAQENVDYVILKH

Turning to “PE conjugated anti-human CD22 antibody (Miltenyi Biotec, Cat. No. 130-105-086)”, the MFI fold over K562 cells (negative control) stood at 642 fold.
